Measurements taken from article PMC4344348, “Quantitative Analysis of Ligand-EGFR Interactions: A Platform for Screening Targeting Molecules” (PLoS ONE, 2015).

Molecular target: T1, Epidermal growth factor receptor (UniProt P00533 25-645)
T1 construct: Epidermal growth factor receptor (EGFR), bought from Sigma-Aldrich; Coupled by its amines to the dextran of a CM5 chip (about 12,000 RU) for both SPR and AFM; also called EGFR; source: bought: Sigma-Aldrich
Assay: SPR; Biacore X; EGFR amine-coupled to a CM5 chip, ligands flowed over; room temperature; running buffer PBS; flow 10 ul/min; regeneration 50 mM NaOH; channel without EGFR as control; EGF 0.25-4 uM, GE11 10-160 uM; KD from BIAEvaluation software
Conditions: both partners purified

Kd: 459 µM
B1: Peptide GE11 (peptide)
peptide: YHWYGYTPQNVI
notes: In solution for SPR; for AFM coupled to succinimide-modified silicon nitride tips; source: synthetic peptide, custom synthesized by Millipore
